Values of other authors, collected in patent US8853185B2, “Coferons and methods of making and using them” (Cornell University, priority 2008, dated 2014).
Each block holds one molecule with its values, some of them ahead of it.

Tests used:
Conditions in all cases: read-out: DISSOCIATION CONSTANT (Kd)
GABP β = GABP β (Homo sapiens, UniProt Q06547)
NF2 = target: T1, NF2 (Homo sapiens, UniProt P35240)
T1 sequence (P35240 1-595): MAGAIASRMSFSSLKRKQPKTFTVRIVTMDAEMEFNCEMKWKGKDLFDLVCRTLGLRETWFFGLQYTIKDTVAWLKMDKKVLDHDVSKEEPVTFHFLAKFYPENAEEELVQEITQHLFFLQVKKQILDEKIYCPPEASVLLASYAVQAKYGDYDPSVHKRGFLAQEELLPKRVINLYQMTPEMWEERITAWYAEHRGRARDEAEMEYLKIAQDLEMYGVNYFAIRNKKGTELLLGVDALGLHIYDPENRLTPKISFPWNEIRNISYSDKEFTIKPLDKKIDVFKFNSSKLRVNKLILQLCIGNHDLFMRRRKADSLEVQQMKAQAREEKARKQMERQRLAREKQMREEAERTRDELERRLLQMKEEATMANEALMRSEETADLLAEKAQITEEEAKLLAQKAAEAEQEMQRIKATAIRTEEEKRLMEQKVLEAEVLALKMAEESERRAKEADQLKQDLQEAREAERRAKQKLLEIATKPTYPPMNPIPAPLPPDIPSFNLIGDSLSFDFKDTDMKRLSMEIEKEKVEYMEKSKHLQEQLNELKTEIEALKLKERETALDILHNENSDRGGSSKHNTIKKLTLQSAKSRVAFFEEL

ASK1 = target: T2, ASK1 (Homo sapiens, UniProt Q99683)
T2 sequence (Q99683 1-1374): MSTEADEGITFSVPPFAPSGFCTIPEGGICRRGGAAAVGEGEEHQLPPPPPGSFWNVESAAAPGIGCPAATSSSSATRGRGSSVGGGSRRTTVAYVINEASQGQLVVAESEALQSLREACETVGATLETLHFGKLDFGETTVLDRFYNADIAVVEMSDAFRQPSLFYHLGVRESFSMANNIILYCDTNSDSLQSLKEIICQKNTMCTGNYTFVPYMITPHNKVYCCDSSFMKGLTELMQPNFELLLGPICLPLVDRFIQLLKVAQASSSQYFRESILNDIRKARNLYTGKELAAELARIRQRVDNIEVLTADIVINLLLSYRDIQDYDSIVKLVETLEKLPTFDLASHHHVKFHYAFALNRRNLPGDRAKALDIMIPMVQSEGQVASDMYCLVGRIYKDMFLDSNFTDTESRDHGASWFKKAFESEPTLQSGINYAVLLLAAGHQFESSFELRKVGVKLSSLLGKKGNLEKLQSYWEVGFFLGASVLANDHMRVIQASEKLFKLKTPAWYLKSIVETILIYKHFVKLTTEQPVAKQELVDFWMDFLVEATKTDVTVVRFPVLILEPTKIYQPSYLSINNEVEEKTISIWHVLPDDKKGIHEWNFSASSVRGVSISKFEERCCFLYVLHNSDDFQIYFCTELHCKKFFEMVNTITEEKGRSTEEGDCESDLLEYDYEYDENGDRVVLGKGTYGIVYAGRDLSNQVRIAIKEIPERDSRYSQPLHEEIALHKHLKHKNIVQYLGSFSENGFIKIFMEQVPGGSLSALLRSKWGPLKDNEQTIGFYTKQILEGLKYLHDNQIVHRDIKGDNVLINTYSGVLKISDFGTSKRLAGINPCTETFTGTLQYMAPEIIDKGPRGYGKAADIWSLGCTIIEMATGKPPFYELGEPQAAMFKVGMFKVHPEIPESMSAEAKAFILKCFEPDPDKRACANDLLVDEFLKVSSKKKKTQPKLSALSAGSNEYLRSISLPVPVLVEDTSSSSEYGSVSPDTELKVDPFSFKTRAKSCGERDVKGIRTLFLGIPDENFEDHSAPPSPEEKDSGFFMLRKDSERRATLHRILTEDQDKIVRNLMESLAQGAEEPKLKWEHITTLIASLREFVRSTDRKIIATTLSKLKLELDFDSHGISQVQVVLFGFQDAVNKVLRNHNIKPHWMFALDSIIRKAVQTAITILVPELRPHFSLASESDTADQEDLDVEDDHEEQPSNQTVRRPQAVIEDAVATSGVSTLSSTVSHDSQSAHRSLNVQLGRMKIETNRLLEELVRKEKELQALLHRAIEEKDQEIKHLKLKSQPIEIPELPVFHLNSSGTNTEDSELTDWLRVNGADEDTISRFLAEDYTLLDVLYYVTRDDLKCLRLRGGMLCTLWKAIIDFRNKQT

MKK4 = target: T3, MKK4 (Homo sapiens, UniProt P45985)
T3 sequence (P45985 1-399): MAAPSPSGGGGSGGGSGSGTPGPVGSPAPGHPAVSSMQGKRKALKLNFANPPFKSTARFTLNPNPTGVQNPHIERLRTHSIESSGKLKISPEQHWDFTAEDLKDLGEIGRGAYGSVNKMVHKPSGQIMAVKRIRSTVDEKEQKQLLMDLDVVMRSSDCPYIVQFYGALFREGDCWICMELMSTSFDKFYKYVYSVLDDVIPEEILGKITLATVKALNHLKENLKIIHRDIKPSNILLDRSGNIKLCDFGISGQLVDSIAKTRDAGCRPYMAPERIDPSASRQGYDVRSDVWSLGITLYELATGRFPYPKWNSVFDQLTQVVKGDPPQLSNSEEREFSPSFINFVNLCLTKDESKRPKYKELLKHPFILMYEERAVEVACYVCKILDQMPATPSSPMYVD

p53 = p53 (Homo sapiens, UniProt P04637)
Chain of p53 (P04637 whole entry, species assumed): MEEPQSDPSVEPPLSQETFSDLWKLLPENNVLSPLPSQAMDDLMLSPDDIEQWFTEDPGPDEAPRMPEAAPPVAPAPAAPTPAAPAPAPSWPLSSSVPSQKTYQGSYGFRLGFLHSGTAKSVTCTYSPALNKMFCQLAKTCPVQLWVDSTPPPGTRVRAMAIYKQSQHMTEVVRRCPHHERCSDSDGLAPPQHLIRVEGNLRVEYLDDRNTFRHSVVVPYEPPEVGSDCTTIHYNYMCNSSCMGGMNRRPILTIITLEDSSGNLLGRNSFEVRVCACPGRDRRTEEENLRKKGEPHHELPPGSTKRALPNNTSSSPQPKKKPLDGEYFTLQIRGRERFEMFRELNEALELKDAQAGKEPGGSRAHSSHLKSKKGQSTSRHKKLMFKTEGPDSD

Chain of GABP β (Q06547 whole entry): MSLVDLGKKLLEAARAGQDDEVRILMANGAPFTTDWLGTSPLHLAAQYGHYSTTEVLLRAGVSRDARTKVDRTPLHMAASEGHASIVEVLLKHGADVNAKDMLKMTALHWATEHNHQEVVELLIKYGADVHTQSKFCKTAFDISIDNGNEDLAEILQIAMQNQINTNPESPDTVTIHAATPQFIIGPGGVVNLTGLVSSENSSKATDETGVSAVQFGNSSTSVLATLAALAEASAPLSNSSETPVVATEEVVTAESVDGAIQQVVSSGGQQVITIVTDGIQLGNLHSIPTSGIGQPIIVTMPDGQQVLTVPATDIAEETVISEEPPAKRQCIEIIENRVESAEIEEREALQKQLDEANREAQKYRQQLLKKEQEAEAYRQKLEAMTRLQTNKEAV

B1: GABP β: binding partner of GABP β (protein, UniProt Q06547 2-395, looked up)
GA-binding protein subunit …: SLVDLGKKLLEAARAGQDDEVRILMANGAPFTTDWLGTSPLHLAAQYGHYSTTEVLLRAGVSRDARTKVDRTPLHMAASEGHASIVEVLLKHGADVNAKDMLKMTALHWATEHNHQEVVELLIKYGADVHTQSKFCKTAFDISIDNGNEDLAEILQIAMQNQINTNPESPDTVTIHAATPQFIIGPGGVVNLTGLVSSENSSKATDETGVSAVQFGNSSTSVLATLAALAEASAPLSNSSETPVVATEEVVTAESVDGAIQQVVSSGGQQVITIVTDGIQLGNLHSIPTSGIGQPIIVTMPDGQQVLTVPATDIAEETVISEEPPAKRQCIEIIENRVESAEIEEREALQKQLDEANREAQKYRQQLLKKEQEAEAYRQKLEAMTRLQTNKEAV
Kd (GABP β): 600 nM

B4: JNK3: binding partner of MKK4 (protein, UniProt P53779 1-464, looked up)
Mitogen-activated protein …: MSLHFLYYCSEPTLDVKIAFCQGFDKQVDVSYIAKHYNMSKSKVDNQFYSVEVGDSTFTVLKRYQNLKPIGSGAQGIVCAAYDAVLDRNVAIKKLSRPFQNQTHAKRAYRELVLMKCVNHKNIISLLNVFTPQKTLEEFQDVYLVMELMDANLCQVIQMELDHERMSYLLYQMLCGIKHLHSAGIIHRDLKPSNIVVKSDCTLKILDFGLARTAGTSFMMTPYVVTRYYRAPEVILGMGYKENVDIWSVGCIMGEMVRHKILFPGRDYIDQWNKVIEQLGTPCPEFMKKLQPTVRNYVENRPKYAGLTFPKLFPDSLFPADSEHNKLKASQARDLLSKMLVIDPAKRISVDDALQHPYINVWYDPAEVEAPPPQIYDKQLDEREHTIEEWKELIYKEVMNSEEKTKNGVVKGQPSPSGAAVNSSESLPPSSSVNDISSMSTDQTLASDTDSSLEASAGPLGCCR
Kd (MKK4): 35000 nM

B5: HmtSSB: binding partner of p53 (protein, UniProt Q04837 17-148, looked up)
Single-stranded DNA-binding …: ESETTTSLVLERSLNRVHLLGRVGQDPVLRQVEGKNPVTIFSLATNEMWRSGDSEVYQLGDVSQKTTWHRISVFRPGLRDVAYQYVKKGSRIYLEGKIDYGEYMDKNNVRRQATTIIADNIIFLSDQTKEKE
Kd (p53): 12700 nM

Continued, values first:

Kd (NF2): 3.7 nM
B2: MPP1: binding partner of NF2 (protein, UniProt Q00013 2-466, looked up)
55 kDa erythrocyte membrane …: TLKASEGESGGSMHTALSDLYLEHLLQKRSRPEAVSHPLNTVTEDMYTNGSPAPGSPAQVKGQEVRKVRLIQFEKVTEEPMGITLKLNEKQSCTVARILHGGMIHRQGSLHVGDEILEINGTNVTNHSVDQLQKAMKETKGMISLKVIPNQQSRLPALQMFMRAQFDYDPKKDNLIPCKEAGLKFATGDIIQIINKDDSNWWQGRVEGSSKESAGLIPSPELQEWRVASMAQSAPSEAPSCSPFGKKKKYKDKYLAKHSSIFDQLDVVSYEEVVRLPAFKRKTLVLIGASGVGRSHIKNALLSQNPEKFVYPVPYTTRPPRKSEEDGKEYHFISTEEMTRNISANEFLEFGSYQGNMFGTKFETVHQIHKQNKIAILDIEPQTLKIVRTAELSPFIVFIAPTDQGTQTEALQQLQKDSEAIRSQYAHYFDLSLVNNGVDETLKKLQEAFDQACSSPQWVPVSWVY

Kd (ASK1): 220 nM
B3: ASK1: binding partner of ASK1 (protein, UniProt Q99683 1-1374, looked up)
Mitogen-activated protein …: T2 sequence (Q99683 1-1374)
